# According to US20160272995A1, “MANIPULATION OF PLASMODESMAL CONNECTIVITY TO IMPROVE PLANT YIELD AND FITNESS” (UNIVERSITY OF DELAWARE, priority 2013, published 2016):
# B1: PDLP5OE: Wild-type A. thaliana PDLP5 protein (SEQ ID NO:4) constitutively overexpressed in plants under the 35S promoter (protein, listed as Arabidopsis thaliana)
# chain: MIKTKTTSLLCFLLTAVILMNPSSSSPTDNYIYAVCSPAKFSPSSGYETNLNSLLSSFVTSTAQTRYANFTVPTGKPEPTVTVYGIYQCRGDLDPTACSTCVSSAVAQVGALCSNSYSGFLQMENCLIRYDNKSFLGVQDKTLILNKCGQPMEFNDQDALTKASDVIGSLGTGDGSYRTGGNGNVQGVAQCSGDLSTSQCQDCLSDAIGRLKSDCGMAQGGYVYLSKCYARFSVGGSHARQTPGPNFGHEGEKGNKDDNGVGKTLAIIIGIVTLIILLVVFLAFVGKCCRKLQDEKWCK
# Columns and labels:
# [1] = tested on: Arabidopsis thaliana; test: Drought test: 2 weeks water withdrawal, then rewatering; type: in vivo; conditions: rewatering after 2 weeks water withdrawal
# Description: All plant lines were grown for 2 weeks with water prior to the 2 week water withdrawal. (a) Plants having a severe knock down of PDLP5 (pdlp5-1) and PDLP5-m5 plants bolt faster than plants overexpressing PDLP5 (OX) and wild type (WT) plants. (b) Plants overexpressing PDLP5 (OX) revive 3 days post rewatering (DPR). (c) Plants overexpressing PDLP5 (OX) fully recover and 10 days post rewatering (DPR); wild type (WT) plants are dead, and PDLP5-m5 plants continue to survive.
# (a) Plants overexpressing PDLP5 (OX), wild type (WT) plants, plants having a severe knock down of PDLP5 (pdlp5-1), and three different PDLP5-m5 plants (T3-4-2, T2-6, and T2-26) which were all grown a different number of days as required to reach same rosette size before water withdrawal. Plants having the same rosette size are referred to as “same day bolting samples.” (b) Same day bolting samples of plants overexpressing PDLP5 (OX), wild type (WT) plants, plants having a severe knock down of PDLP5 (pdlp5-1), and three different PDLP5-m5 plants (T3-4-2, T2-6, and T2-26) at the end of a 2 week water withdrawal. (c) Same day bolting samples of plants overexpressing PDLP5 (OX) and two different PDLP5-m5 plants (T3-4-2 and T2-26) recover fully 3 days post rewatering.
# Transgenic T1 plants were selected on basta+plates and homozygous T2 lines were identified by segregation test on T3 plants. For the drought test, homozygous lines were grown in soil for the 2 weeks with watering followed by 2 weeks of water withdrawal. Tolerance to drought stress of the PDLP5-m5 was assessed by the plant growth or death upon resuming watering.
# PDLP5-m5 plants were evaluated by exposing them to drought conditions. PDLP-m5 plants were grown under normal conditions with water, water was withdrawn for 2 weeks, and rewatering was commenced. Plants having a severe knock down of PDLP5 (pdlp5-1) and PDLP5-m5 plants bolt faster than plants overexpressing PDLP5 and wild type plants (FIG. 13A). […] The early bolting of the PDLP5-m5 plants appeared to affect plant revival. Therefore, the experiment was repeated using same day bolting samples. Briefly, plants having the same rosette size were used, regardless of the number of days required to achieve that rosette size (FIG. 14A).
# [2] = tested on: Arabidopsis thaliana; test: Primary and lateral root quantification in seedlings; type: in vivo
# Description: (A) Lateral root development in wild type (WT) plants, plants having a severe knock down of PDLP5 (pdlp5-1), and plants overexpressing PDLP5 (PDLPOE) expressing DR5:GUS. Arrowheads indicate tertiary roots. (B) Quantification of total lateral root numbers (both emerged and unemerged secondary [2°], tertiary [3°], and quaternary [4°] roots). n≧30 per seedling set. Bars, standard deviation. Stars, significance determined by student T-test (P<0.01). (C) A diagram depicting several stages of LRP emergence. (D) Percent distribution of LRP stages, recorded at root bend at indicated time points following gravistimulation at 3 dpg. n≧20 seedlings per set.
# (A-C) GUS-stained 11-day-old seedlings expressing DR5:GUS in wild type (WT) Col-0 plants (A), plants having a severe knock down of PDLP5 (pdlp5-1) (B), and plants overexpressing PDLP5 (PDLPOE) (C). Size bar in (A), common to (B) and (C). (D) Measurement of primary root length in 10-day-old wild type (WT) seedlings, seedlings having a severe knock down of PDLP5 (pdlp5-1), and seedlings overexpressing PDLP5 (PDLPOE). n=30 seedling per line. (E) Measurement of % emerged lateral root (LR) of total secondary roots in 10-day-old WT, pdlp5-1, and PDLP5OE seedlings. n=30 seedling per line. (F) Measurement of average secondary root length per seedling in 7-day-old WT and pdlp5-1. n=28 seedlings per line.
# To investigate the importance of PD function during lateral root emergence, PDLP5 loss-of-function and over-expressing lines were characterized. […] Furthermore, this reduction in secondary root development was reiterated in later stages of root branching, with PDLP5OE showing reduced tertiary root occurrence (26% and 50% of WT at 8 and 11 day post germination [dpg], respectively). […] Lateral roots were 1.4-fold longer on average in pdlp5-1 than WT (FIG. 17F) at 7 dpg and later. […] Given the overall increase in average secondary root length in pdlp5-1, we conclude that the higher occurrence of tertiary and quaternary root formation can be attributed to an accelerated secondary root growth.
# All Arabidopsis thaliana genotypes were in the Col-0 genetic background, except for shy2-2 in Ler, and iaa28-1 in Ws. Seedlings were grown vertically in 0.5X MS agar under a continuous light at 22° C. Plants in soil were grown in a 16 hr light, 22° C. All the genetic crosses (see Table 5) were selfed, and genotyped to identify homozygous mutations when necessary. Genomic DNA was isolated from segregating F2 plants followed by PCR analyses using gene-specific primers (see Table 6).
# GUS solution (100 mM sodium phosphate buffer, pH 7.0, 10 mM EDTA, 0.5 mM each potassium ferrocyanide and potassium ferricyanide, 1.24 mM X-Gluc, and 0.1% Triton X-100) was vacuum-infiltrated into plant tissue for five minutes, then removed from vacuum and incubated in 37° C. for 3 to 12 hrs, followed by a series of ethanol washes. Stained tissues were imaged using Zeiss Axioskop 2 microscope. LRP were quantified by counting both the emerged LR and unemerged LR, as determined by DRS::GUS staining of the primordia, under a dissecting microscope (1.2× magnification). LRP stages were determined by examining ethanol-cleared, GUS-stained tissue using 40× water lens.
# [3] = Arabidopsis plants; cited from earlier work
# [4] = tested on: Pseudomonads; conditions: Arabidopsis plants; cited from earlier work
molecule,measurement,setting,value
B1,outcome upon rewatering,[1],recovered after rewatering
same,"secondary roots, % of WT number",[2]; 8 dpg,66%
same,"tertiary root occurrence, % of WT",[2]; 8 dpg,26%
same,"emerged LRP among total secondary roots, % of that found in WT",[2]; 10-day-old seedlings,50%
same,"secondary roots, % of WT number",[2]; 11 dpg,77%
same,"tertiary root occurrence, % of WT",[2]; 11 dpg,50%
same,reduction in the primary root length,"[2]; ten-day-old seedlings, compared to WT",approximately 30%
same,total SA compared with the wild-type control,[3],15 fold
same,immunity to infection,[4],innate immunity to Pseudomonads infection
